The assay has as its target VemH (Streptomyces venezuelae ATCC 10712).

Among the data in article PMC6941969 are apparent Kd from enzyme activity: initial velocities of venemycin production (HPLC) values, retold here.

Take VemG (enzyme): the apparent Kd from enzyme activity: initial velocities of venemycin production (HPLC) at constant 0.2 µM VemH and 0.1–8.0 µM VemG, fit with a quadratic binding equation is 5.1 µM.
